Tests used:
Format in all cases: cell-based
[1] = test system: ER 1-535 and ER L543/544A mutants; experiment: ERE-TATA-luciferase transactivation of AF-2 mutant ERs in COS-7 cells; settings: COS-7, 1, 2.5, 5 μg SRC1-DN, 10 nM ligand
Method: FIG. 2. Effect of cyclin D1 on helix 12 mutants of ER. The effect of cyclin D1 on ER mutants was tested in COS-7 cells (A, B) and in U2-OS cells (C, D) in the presence of ligand. An ERE-TATA-luciferase reporter construct was used in transient transfections together with cyclin D1 and ER 1-535 (A, C) or ER L543/544A mutants (B, D). β-Galactosidase served as an internal control. The reporter activity was determined both in the presence (black bars) and in the absence (white bars) of 10 nM 17β-estradiol. The relative luciferase activity was calculated by normalizing to the b-galactosidase activity. The relative reporter activity of wild type ER in the presence of ligand was used as a reference and set at 100%. […] The transfection were performed in at least five separate experiments and expressed as average ±SD.
FIG. 3. Role of coactivators in cyclin D1—induced transactivation. • (A) Effect of a dominant negative form of SRC-1 (SRC1-DN) on ER transactivation. […] The relative activity was calculated by normalizing to the internal control and was divided by luciferase activity of ER (mutant) in the presence of ligand. The transfection for each set of conditions were done at least in four independent experiments and expressed as average ±SD. […]

[2] = target: E2F-1 transcription factor (Homo sapiens, UniProt Q01094); experiment: Effect on E2F-1 transcription factor (data not shown)
Sequence of E2F-1 transcription factor (Q01094 whole entry): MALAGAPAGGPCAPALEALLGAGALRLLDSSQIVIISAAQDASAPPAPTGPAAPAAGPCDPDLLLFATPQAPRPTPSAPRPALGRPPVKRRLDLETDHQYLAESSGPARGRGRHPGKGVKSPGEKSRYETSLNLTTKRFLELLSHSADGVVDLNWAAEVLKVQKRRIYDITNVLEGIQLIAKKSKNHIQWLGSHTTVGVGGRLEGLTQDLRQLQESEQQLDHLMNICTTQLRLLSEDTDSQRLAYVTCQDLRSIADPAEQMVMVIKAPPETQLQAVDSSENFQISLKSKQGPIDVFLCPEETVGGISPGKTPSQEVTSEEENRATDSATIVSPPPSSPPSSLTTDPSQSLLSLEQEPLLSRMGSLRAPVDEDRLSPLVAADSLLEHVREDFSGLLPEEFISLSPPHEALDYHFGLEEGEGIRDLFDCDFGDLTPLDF

wild type ER = experiment: ERE-TATA-luciferase transactivation of wild type ER in COS-7 cells; settings: COS-7, 3 μg SRC1-DN, 10 nM ligand
Method: FIG. 1. Mapping of the region of cyclin D1 required for ER-mediated transactivation. • (A) The effect of cyclin D1 deletion mutants on ER activation in the presence of ligand. The cyclin D1 derivatives used in this study are shown in the left panel; right side of Figure represents the relative capacity of the mutants to potentiate ERE-dependent transcription. ER-negative COS-7 cells were transfected with expression vectors for wild type ER (200 ng), cyclin D1 or cyclin D1 mutants (2.5 μg), an internal control §-galactosidase plasmid (0.5 μg) and an ERE-TATA-luciferase reporter (3 μg). The effect on ER transactivation of wild type cyclin D1 was set to 100%. These studies were performed in three separate experiments and expressed as mean values with standard deviation less then […]. The alignment of leucine-rich motif of ER with D-type cyclins are shown on the bottom; the leucine-rich motif in cyclin D1 is indicated as a dark box. The identifiers for the sequences shown are as follows: Cyclin D1 (SEQ ID NO:11), Estrogen receptor (SEQ ID NO:12), the Cyclin D2 (SEQ ID NO:13), and the Cyclin D3 (SEQ ID NO:14). • (B) ER activation by D-type cyclins, cyclin D1 L254/255A point mutant (D1-LALA) and SRC-1 in the presence of ligand. COS-7 cells were transfected with D-type cyclin expression vectors, cyclin D1 Leucine-to-Alanine point mutant (D1-LALA) or SRC-1 expression vector together with wild type ER expression vector, an ERE-TATA-luciferase reporter plasmid and the internal control β-galactosidase construct. Data are expressed as relative luciferase activity compared with basal ERE-luciferase activity of wild type ER and are normalized for transfection efficiencies.
FIG. 3. Role of coactivators in cyclin D1—induced transactivation. • (A) Effect of a dominant negative form of SRC-1 (SRC1-DN) on ER transactivation. SRC1-DN encoding amino acids 1245-1441 of SRC-1 (1, 2.5 and 5 μg) was introduced by transient transfection together with wild type ER (200 ng) and was tested for its ability to modulate ERE-dependent transcription. • (B) Effect of SRCI-DN on SRC-1 and TIF 2 mediated ER transactivation. SRC-1 (3 μg) or TIF-2 (3 μg) were transfected with SRC1-DN (3 μg) and tested for ER transactivation. • (C) Effect of SRC1-DN on cyclin D1-induced transactivation of ER 1-535 mutant. Cyclin D1 was cotransfected with SRC1-DN (1, 2.5, 5 μg) and tested for its effect on an ER harboring a deletion of coactivator binding site in helix 12 (ER 1-535). • (D) Effect of SRC1-DN on cyclin D1-induced transactivation of ER L543/544A mutant. Cyclin D1 and SRC1-DN (1, 2.5, 5 gg) were transfected and tested for the activity of ER helix 12 point mutant (ER L543/544A). The transient transfections (A-C) were performed in COS-7 cells, which were maintained in DMEM with 10 nM ligand. The relative activity was calculated by normalizing to the internal control and was divided by luciferase activity of ER (mutant) in the presence of ligand. The transfection for each set of conditions were done at least in four independent experiments and expressed as average ±SD.
To study how cyclin D1 activates ER, cyclin D1 deletion mutants were tested for their effect on ER-transactivation. COS-7 cells were transfected with cyclin D1 mutants, together with ER and a luciferase reporter gene construct driven by a minimal TATA promoter linked to an estrogen response element (ERE). […] This part of the protein is not involved in CDK interaction and is poorly conserved among the different cyclins. […] To test the relevance of this leucine-rich domain of cyclin D1 in ER activation, a cyclin D1 mutant was constructed in which leucines 254 and 255 were mutated to alanines (D1 L254/255A). This mutation in cyclin D1 is similar to the mutation in ER (ER L543/544A) that interferes with coactivator binding to AF-2 (Danielian et al., 1992). […]

B1: SRC1-DN: dominant negative mutant of SRC-1 encoding amino acids 1245-1441 of SRC-1 (protein, UniProt Q15788 1245-1441, looked up, fragment)
chain: FAPSLSPGSSMVPMPIPPPQSSLLQQTPPASGYQSPDMKAWQQGAIGNNNVFSQAVQNQPTPAQPGVYNNMSITVSMAGGNTNVQNMNPMMAQMQMSSLQMPGMNTVCPEQINDPALRHTGLYCNQLSSTDLLKTEADGTQQVQQVQVFADVQCTVNLVGGDPYLNQPGPLGTQKPTSGPQTPQAQQKSLLQQLLTE
In the case of B1, the “effect on cyclin D1-induced activation of the ER AF-2 mutants” value [1] is reported as “markedly repressed”, the “effect on E2F-1 transcription factor” value [2] is reported as “inactive” and the “effect on SRC-1 and TIF2 mediated ER transactivation” value (wild type ER) is reported as “inhibited”.
